Patent US20150197757, “OXYGEN-RESPONSIVE BACTERIAL GENE SWITCH” (Wisconsin Alumni Research Foundation, published 2015)
Residue numbers refer to the chain shown, from its start.

Experiments:
ArcA (chromosomal) [1] = molecular target: T1, ArcA (chromosomal) (Escherichia coli, UniProt P0A9Q1 P0A9Q1:1-238); assay: cell_activity; anaerobic lacZ fusion; repression largely relieved with O2
T1 sequence: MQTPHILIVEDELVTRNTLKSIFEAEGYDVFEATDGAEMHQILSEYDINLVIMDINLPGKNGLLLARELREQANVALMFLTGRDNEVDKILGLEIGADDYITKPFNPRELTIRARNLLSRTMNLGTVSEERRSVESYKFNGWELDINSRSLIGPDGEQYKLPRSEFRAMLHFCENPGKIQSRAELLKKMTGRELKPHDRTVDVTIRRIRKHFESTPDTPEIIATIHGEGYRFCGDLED
Experimental: (§1) Strains containing P1icdA-lacZ were grown in minimal media with 0.2% glucose. Fold repression was calculated by dividing the β-galactosidase activity of a ΔarcA strain (e.g., 803 Miller units for wt P1icdA-lacZ without O₂) by the activity of an arcA⁺ strain (e.g., 57 Miller units for wt P1icdA without O₂). The 10-bp DRs are indicated by open boxes with an X representing a DR element for which the repressive activity has been eliminated by mutation, and asterisks denoting DRs that have been mutated towards consensus (see FIG. 1C). (A) Effects of mutations away from consensus within each DR element, assayed under anaerobic conditions (—O₂). (B) The effect of mutations towards consensus within each DR element, assayed under anaerobic conditions. The dotted line represents anaerobic ArcA-dependent repression of wt P1icdA. (C) The effect of mutations towards consensus within each DR element, assayed under aerobic conditions. […]
(§2) β-galactosidase assays—All strains were grown in MOPS minimal medium (Neidhardt et al., 1974) with 0.2% glucose at 37° C. and sparged with a gas mix of 95% N₂ and 5% CO₂ (anaerobic) or 70% N₂, 5% CO₂, and 25% O₂ (aerobic). […] Standard errors for data plotted as ‘fold repression’ were calculated using a propagation of standard error formula (Ku, J. Res. National Bureau of Standards 70C:263-273 (1966)).

ArcA (chromosomal) [2] = molecular target: T1, ArcA (chromosomal); assay: cell_activity; anaerobic
Experimental: P1icdA expression in the construct with a fourth DR element was about 18% higher in a ΔarcA background compared to the other strains tested (data not shown).
How ArcA binding to each DR element contributes to icdA repression was determined by measuring β-galactosidase activity produced from P1icdA-lacZ transcriptional fusions containing the GT-to-CA (5′-TGTTA-3′ to 5′-TCATA-3′) (SEQ ID NO:2; SEQ ID NO:4, respectively) mutations within each DR element under anaerobic conditions. […] P1izcdA was repressed 14-fold by ArcA (FIG. 3A). […]
β-galactosidase assays—All strains were grown in MOPS minimal medium (Neidhardt et al., 1974) with 0.2% glucose at 37° C. and sparged with a gas mix of 95% N₂ and 5% CO₂ (anaerobic) or 70% N₂, 5% CO₂, and 25% O₂ (aerobic). […] To terminate cell growth and any further protein synthesis, chloramphenicol (final concentration, 20 μg/ml) or tetracycline (final concentration, 10 μg/ml) was added, and cells were placed on ice until assayed for β-galactosidase activity (Miller J H (1972) Experiments in molecular genetics. [Cold Spring Harbor, N.Y.]: Cold Spring Harbor Laboratory). β-Galactosidase assays were repeated at least three times and fold repression was calculated by dividing the β-galactosidase activity of a ΔarcA strain by the activity of an arcA⁺ strain. […]

ArcA (chromosomal) [3] = molecular target: T1, ArcA (chromosomal); assay: cell_activity; aerobic; anaerobic repression similar to consensus DR3 alone
Experimental: as §1, §2

ArcA (chromosomal) [4] = molecular target: T1, ArcA (chromosomal); assay: cell_activity; anaerobic; remark: listed apart in the source
Experimental: as §1, §2

[5] = molecular target: T2, ArcA-P (phosphorylated ArcA) (Escherichia coli, UniProt P0A9Q1 P0A9Q1:1-238); assay: footprint; all four DRs protected; apparent affinity higher than wt; narrow range (<4-fold) of ArcA-P; settings: tags: His6 removed with TEV protease; phosphorylated with carbamyl phosphate; chain copies: 2 per two DR elements (inferred); label: 3' 32P (footprint)
T2 sequence: T1 sequence
Experimental: To determine whether adding a fourth DR element facilitates ArcA-P binding and increases the footprint length, a consensus DR element (5′-TGTTA-3′) (SEQ ID NO:2) was added at the same spacing (11 by center-to-center) to either the 3′ or the 5′ end of the three-DR ArcA binding site within the icdA promoter region and DNase I footprinting experiments were performed.
DNase I footprinting: icdA promoter fragments were isolated from pPK9476, pPK9477, pPK9908, pPK9909, pPK9913, pPK9914, and pPK15001 after digestion with XhoI and BamHI. Sequenase Version 2.0 (USB Scientific) was used to 3′ radiolabel the BamHI end of the fragment with [α-³²P]-dGTP (PerkinElmer). Labeled DNA fragments were isolated from a non-denaturing 5% acrylamide gel and were subsequently purified with Elutip-d™ columns (Schleicher and Schuell). ArcA was phosphorylated by incubating with 50 mM disodium carbamyl phosphate (Sigma Aldrich) in 50 mM Tris, pH 7.9, 150 mM NaCl, and 10 mM MgCl₂ for 1 hour at 30° C. (Lynch & Lin, J. Bacteria 178:6238-6249 (1996)) and immediately used in the binding assays. Footprinting assays were performed by incubating phosphorylated ArcA with labeled DNA (˜5 nM) for 10 minutes at 30° C. in 40 mM Tris (pH 7.9), 30 mM KCl, 100 μg/ml BSA and 1 mM DTT followed by the addition of 2 μg/ml DNase I (Worthington) for 30 seconds.

ArcA (chromosomal) [6] = molecular target: T1, ArcA (chromosomal); assay: cell_activity; anaerobic; aerobic about 2.5-fold repression
Experimental: as §1, §2

ArcA (chromosomal) [7] = molecular target: T1, ArcA (chromosomal); assay: cell_activity; anaerobic; aerobic repression nearly the same, no longer O2 sensitive
Experimental: as §1, §2

ArcA (chromosomal) [8] = molecular target: T1, ArcA (chromosomal); assay: cell_activity; anaerobic; aerobic 7-fold repression
Experimental: as §1, §2

ArcA D54E = molecular target: T3, ArcA D54E (Escherichia coli, UniProt P0A9Q1 P0A9Q1:1-238, D54E); assay: cell_activity; anaerobic; aerobic repression above wt ArcA
T3 sequence: T1 sequence with D54E
Text: To test whether the enhanced repression of P₁idcdA with mutant ArcA binding sites is still dependent on phosphorylation, the aspartate residue at position 54 (site of phosphorylation) in the chromosomal copy of arcA was mutated to yield either alanine or glutamate, preventing phosphorylation from ArcB. The D54A variant reduced the repression of all P1icdA-lacZ constructs compared to that with the wt protein under both aerobic and anaerobic growth conditions (FIG. 5A). […] Thus, the elevated aerobic repression with the strengthened ArcA binding sites appears to result from increased occupancy of the small amount of ArcA-P likely present during aerobic conditions.
as §2, with “(aerobic). Cells were harvested during mid-log growth (OD₆₀₀ of ˜0.3 on a Perkin Elmer Lambda 25 UV/Vis Spectrophotometer).” for “(aerobic).”

B1: icdA P1 wt (dsDNA)
DNA 1: AGAGCAATTTTTTGTTAATGATTTGTAATTGGCTTGTCAATACTACCCTATTGT
DNA 2: ACAATAGGGTAGTATTGACAAGCCAATTACAAATCATTAACAAAAAATTGCTCT
Question: How did the activity (ArcA (chromosomal) [1]) turn out when B1 was run?
Answer: Its activity is 14 fold repression.

B2: icdA P1 DR3 GT->CA (dsDNA)
DNA 1: B1 DNA 1 with G36C, T37A
DNA 2: B1 DNA 2 with A18T, C19G
Question: Which activity (ArcA (chromosomal) [2]) does the source give for B2 here?
Answer: Its activity is ~3.5 fold loss in repression vs wt.

B3: icdA P1 DR2 A->T, DR3 C->T (dsDNA)
DNA 1: B1 DNA 1 with A27T, C38T
DNA 2: B1 DNA 2 with G17A, T28A
Question: B3 was tested. Which activity (ArcA (chromosomal) [3]) did it give?
Answer: The activity was 21 fold repression.

B4: icdA P1 DR2 A->T, DR3 GT->CA (dsDNA)
DNA 1: B1 DNA 1 with A27T, G36C, T37A
DNA 2: B1 DNA 2 with A18T, C19G, T28A
Question: Which activity (ArcA (chromosomal) [4]) does the source give for B4 here?
Answer: Its activity is 3 fold reduction in repression vs DR2 A->T.

B5: icdA P1 3' DR4 (dsDNA)
DNA 1: B1 DNA 1 with C46T, C47G, C48T
DNA 2: B1 DNA 2 with G7A, G8C, G9A
Question: Does B5 bind [5]?
Answer: Result: binds

B6: icdA P1 DR2 A->T (dsDNA)
DNA 1: B1 DNA 1 with A27T
DNA 2: B1 DNA 2 with T28A
Question: Which activity (ArcA (chromosomal) [6]) does the source give for B6 here?
Answer: The activity was 3 fold increase in repression vs wt.

B7: icdA P1 5' DR4 (dsDNA)
DNA 1: B1 DNA 1 with G2T, A3G, G4T, C5T
DNA 2: B1 DNA 2 with G50A, C51A, T52C, C53A
Question: How did the activity (ArcA (chromosomal) [7]) turn out when B7 was run?
Answer: Its activity is 8 fold increase in repression vs wt.

B8: icdA P1 DR3 C->T (dsDNA)
DNA 1: B1 DNA 1 with C38T
DNA 2: B1 DNA 2 with G17A
Question: Which results are given for B8?
Answer: activity (ArcA (chromosomal) [8]): 6 fold increase in repression vs wt; activity (ArcA D54E): 2 fold reduction in repression vs wt ArcA
